# Results: paper PMC8528956 (Frontiers in Immunology, 2021)
# Biological target: wild-type H3 A/Hong Kong/1/1968 hemagglutinin, recombinant full-length soluble ectodomain (Influenza A virus A/Hong Kong/1/1968 …, UniProt Q91MA7)
# Experiment: ELISA
# Settings: both partners purified
row,Binder,binding result
1,"8H10 IgG (humanized constant domains), directed to the HA trimer interface (antibody, V domains shown, source: 293F suspension cells, transient, purified from supernatants (Protein G); copies: 2 + 2) VH: EVQLQESGEGLVKPGGSLKLSCAASGFTFSNYDMSWVRQTPEKRLEWVAYISSGGDYIYYADTVKGRFTISRDNARNTLYLQMSSLKSEDTAMYYCTRNYYYGSLPVWFAYWGQGTLVTVSG VL: QAVVTQESALTTSPGETVTLTCRSSTGAVTTSNYANWVQEKPDHLFTGLIGGTNNRAPGVPARFSGSLIGDKAALTITGAQTEDEAIYFCALWYSNHSWVFGGGTKLTVL",binds
2,"HC19 IgG (humanized constant domains), RBS-directed (antibody, V domains shown, source: 293F suspension cells, transient, purified from supernatants (Protein G); copies: 2 + 2) VH: QVQLKESGPGLVAPSQSLSITCTVSGFLLISNGVHWVRQPPGKGLEWLGVIWAGGNTNYNSALMSRVSISKDNSKSQVFLKMKSLQTDDTAMYYCARDFYDYDVFYYAMDYWGQGTSVTVSS VL: QAVVTQESALTTSPGETVTLTCRSSTGAVTTSNYANWVQEKPDHLFTGLIGGTNNRAPGVPARFSGSLIGDKAALTITGAQTEDEAIYFCALWYSNHWVFGGGTKLTVL",binds
3,"FI6 IgG, stem-directed (antibody, V domains shown, source: 293F suspension cells, transient, purified from supernatants (Protein G); copies: 2 + 2) VH: QVQLVESGGGVVQPGRSLRLSCAASGFTFSTYAMHWVRQAPGKGLEWVAVISYDANYKYYADSVKGRFTISRDNSKNTLYLQMNSLRAEDTAVYYCAKDSQLRSLLYFEWLSQGYFDYWGQGTLVTVSS VL: not shown",binds
4,"HC45 IgG (humanized constant domains), directed to the vestigial esterase domain (antibody, V domains shown, source: 293F suspension cells, transient, purified from supernatants (Protein G); copies: 2 + 2) VH: QVQLQQPGAELVRPGASVKLSCKASGYTLTTYWMNWFKQRPDQGLEWIGRIDPYDSETHYNQKFKDKAILTVDRSSSTAYMQLSSLTSEDSAVYYCTRFLQITTIIYGMDYWGQGTSVTVSS VL: DVVMTQTPLSLPVSLGDQASISCRSSQTLVHSNGNTYLHWYLQKPGQSPKLLIYKVSNRFSGVPDRFSGSGSGTDFTLKISRVEAEDLGVYFCSQNTHVPYTFGGGTKLEIK",binds
